# Measurements taken from PMC12043510.
# What was measured:
# [1] = molecular target: GST–CP (rice stripe virus (RSV)); assay: MST
# [2] = molecular target: MBP–P2^1–786 (rice dwarf virus (RDV)); assay: MST
substance,measurement,setting,value
MBP–RBRL (from UniProt Q75LV6 1-540) (enzyme),Kd,[1],5.28 nM
same,Kd,[2],183 nM
